Laboratory results: US20210403591A1

What was measured:
[1] = biological target: mTfR-1 N253A on Expi293 cells (mouse) (UniProt Q62351); assay: FACS, transfected Expi293 cells
[2] = biological target: mTfR-1 S255A on Expi293 cells (mouse) (UniProt Q62351); assay: FACS, transfected Expi293 cells
[3] = biological target: mTfR-1 L256A on Expi293 cells (mouse) (UniProt Q62351); assay: FACS, transfected Expi293 cells; mutant poorly expressed
Sequence of mTfR-1 L256A on Expi293 cells (mouse) (Q62351 whole entry L256A): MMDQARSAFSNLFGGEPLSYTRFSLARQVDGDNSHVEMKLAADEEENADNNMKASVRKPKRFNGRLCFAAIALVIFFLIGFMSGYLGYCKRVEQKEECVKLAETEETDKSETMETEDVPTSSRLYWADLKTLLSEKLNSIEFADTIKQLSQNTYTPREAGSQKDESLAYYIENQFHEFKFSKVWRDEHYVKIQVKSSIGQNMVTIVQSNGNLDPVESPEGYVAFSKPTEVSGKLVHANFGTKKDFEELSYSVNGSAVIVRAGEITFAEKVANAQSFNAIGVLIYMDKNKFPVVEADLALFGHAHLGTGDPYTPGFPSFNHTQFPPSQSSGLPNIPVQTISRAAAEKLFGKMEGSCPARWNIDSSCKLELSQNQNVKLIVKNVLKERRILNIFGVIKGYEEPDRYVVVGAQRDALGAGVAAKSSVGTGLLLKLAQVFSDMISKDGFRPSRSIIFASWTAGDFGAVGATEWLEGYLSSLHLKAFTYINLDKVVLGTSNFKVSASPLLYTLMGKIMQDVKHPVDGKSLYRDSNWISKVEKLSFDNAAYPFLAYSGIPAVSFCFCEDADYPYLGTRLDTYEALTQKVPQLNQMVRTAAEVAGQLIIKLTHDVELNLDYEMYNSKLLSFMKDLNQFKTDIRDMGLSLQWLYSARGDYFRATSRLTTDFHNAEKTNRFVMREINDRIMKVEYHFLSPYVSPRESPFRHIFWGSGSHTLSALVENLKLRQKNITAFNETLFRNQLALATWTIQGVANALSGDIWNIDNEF

Sequence of mTfR-1 S255A on Expi293 cells (mouse) (Q62351 whole entry S255A): as the sequence (Q62351 whole entry L256A) above, with S255A, A256L counted along it
Sequence of mTfR-1 N253A on Expi293 cells (mouse) (Q62351 whole entry N253A): as the sequence (Q62351 whole entry L256A) above, with N253A, A256L counted along it

Row | Binder | % double-positive cells vs WT [1] [%] | % double-positive cells vs WT [2] [%] | % double-positive cells vs WT [3] [%]
1 | Clone C variant 13 VNAR-hFc (Fc fusion, not shown: a dimerising Fc or GST) ARVDQTPQTITKETGESLTINCVLRDSNCALSSTYWYRKKSGSTNEENISKGGRYVETVNSGSKSFSLRINDLTVEDSGTYRCNVVQYPQQDNYFWCDVYGDGTAVTVN | 27 | 19 | 
2 | Clone C VNAR-hFc fusion (Fc fusion, not shown: a dimerising Fc or GST) ARVDQTPQTITKETGESLTINCVLRDSNCALSSTYWYRKKSGSTNEENISKGGRYVETVNSGSKSFSLRINDLTVEDSGTYRCNVVQYPSYNNYFWCDVYGDGTAVTVN |  |  | 1
